Substrate in this series: Nc1ccn([C@@H]2O[C@H](COP(=O)(O)OP(=O)(O)OP(=O)(O)O)[C@@H](O)[C@H]2O)c(=O)n1
Kind of series: discontinuous CMP-Kdo formation assay (Ray et al.), non-linear Michaelis-Menten fit. The series is classed as biochemical, Aquifex aeolicus. As to conditions: co-substrate Kdo held constant (>5 x Km), 10 mM MgCl2 (typical mixture), 100 mM glycine-NaOH pH 9.0, 50°C.

The results in this text go back to paper PMC3149649, “Evidence for a Two-Metal-Ion Mechanism in the Cytidyltransferase KdsB, an Enzyme Involved in Lipopolysaccharide Biosynthesis” (PLoS ONE, 2011).

B1: AA-LCKS (LPS-specific CMP-Kdo synthetase, KdsB) (Aquifex aeolicus VF5) (protein)
chain: MRRAVIIPARLGSTRLKEKPLKNLLGKPLIRWVVEGLVKTGERVILATDSERVKEVVEDLCEVFLTPSDLPSGSDRVLYVVRDLDVDLIINYQGDEPFVYEEDIKLIFRELEKGERVVTLARKDKEAYERPEDVKVVLDREGYALYFSRSPIPYFRKNDTFYPLKHVGIYGFRKETLMEFGAMPPSKLEQIEGLEQLRLLENGIKIKVLITENYYHGVDTEEDLKIVEEKLKNL
notes: recombinant from plasmid pT7-kdsB in E. coli BL21-CodonPlus(DE3)-RIL; no tag mentioned; monomer 27 kDa, gel filtration 53 kDa, homodimer
Take B1: the Michaelis-Menten constant (Km) was 160 ± 4 µM and the catalytic constant (kcat) came out at 9.5 ± 0.5 s⁻¹.

As a reminder, the Km is the concentration of substrate that gives half-maximal velocity. A word on the kcat: it is the maximal rate divided by the concentration of active sites.
